According to publication PMC12680531, “A novel TM4SF4-targeting therapeutic antibody candidate with antitumor activity by blocking IGF1R and CD44 signaling and downregulating PD-L1 and B7-H4” (Theranostics, 2026):
No end group written: not given here.

Biological target: T1, biotinylated hTM4SF4 (T126-E140) peptide containing a GSAGGS spacer (Homo sapiens, also: biotin, position not given here, GSAGGS spacer, position not given here)
T1 construct: human TM4SF4, residues T126-E140 of the large extracellular loop; also called biotinylated hTM4SF4 peptide; hTM4SF4 peptide
T1 chain: TWGYPFHDGDYLNDE
Assay: SPR; Biacore T200; biotinylated hTM4SF4 peptide with GSAGGS spacer immobilised on a streptavidin chip; antibodies in two-fold dilutions (128-1 nM or 512-16 nM) in HBS-EP+; 25°C; 30 μL/min; 1:1 binding model
Settings: both partners purified

- Kd: 2.66 nM
B1: murine anti-hTM4SF4 monoclonal antibody 2B7 (antibody, V domains shown)
VH: EVKLEESGPGILQPSQTLSLTCSFSGFSLSTYGIGVSWIRQPSGKGLEWLAHIWWNDNKYYNTALKSRLTISKDTSNNQVFLKIASVDTADTATYYCARKEGSSAPFAYWGQGTLVTVSA
VL: not shown
notes: VH of murine 2B7; mouse IgG1 heavy chain constant region; Vκ of murine 2B7; mouse kappa light chain constant region; murine IgG1, kappa; also called murine 2B7; anti-hTM4SF4 mAb 2B7; source: murine hybridoma, purified from culture supernatant (protein G chromatography)
